In a protein production outcome set (Wang et al. 2014) one finds protein production data, which are given here for 22 sequences.

This data set is described as follows: label from the status in PepcDB records.
For the sequence “MTTEPVDYVSPLVGTQSKHALSTGNTYPAIAMPWGMNFWVAQTGKMGDGWAYTYDADKIRGFKQTHQPSPWINDYGQFAIMPVTGKVVFDQDQRASWFSHKAEVAKPYYYKVYLADHDVTTEIAPTSRAAMFRFTFPESKDSYVVVDAFDNGSYVKVIPEENKIIGYTTKNSGGVPENFKNYFVLVFDKPFTFTAAVTNGNIRPGELEHHHHHH”, the protein production entry is “failed”. “MTTESAWTRWPSREALGREGLSRPRRMLAWTVRALVLAMLLWGAFSSSHVHGWGAVAAAAGVLLAAGASWAFFRTTLQHRLWPSLALIAVLLGIAIVAQTAGFQVPALVIWCGCAVSALERLPLAAALPVTTAALAAYAAVDNDVWLTTAATIAGLFLAGYVLRLDAEARGSAQRLLAQERAARAAETQSAALAERARIAREIHDVLAHSLSAQLVHLEAARLLIERGADREQILGRVVAARGMAREGLAETRQALSALRGEISPLEDFLSELVAFEDGADVTVSGERRLLTAEASQAVRRVAQEALTNVRKHAPGAKVQVKLEYGERQVTLHVRDSGGKPGDLTGSGAGYGLLGMRERAELLGGSLEAGREEKGFVVTLKVPA”: the protein production result is listed as “failed”. Turning to “MTTFNYTNILTQAVDELSESQSYKGLFHQHKDGDPLPSAKSLYKIVELARAIIFPGYFGNSTVNSHTINYHIGVNVETLFGLLTEQILAGLCFGQENSKNATDDNEPCRETASLLAARFISKLPELRRILATDVEAAYYGDPAATCFGEIISCYPAIRAISNYRIAHELLILGVPLIPRFITEMAHSETGIDIHPGAQIGHHFTIDHGTGVVIGATSIIGNNVKLYQGVTLGAKSFPLDNNGNPIKGIPRHPILEDDVIVYSNATILGRVTIGKGATVGGNIWVTENVPAGSRIVQRKNKDELEHHHHHH”, the protein production result is given as “not failed”. On to “MTTFSVIMATYNRGRHILPSIQSVLRQTCRDFELLVVGDCCTDDTADVVRALASPQIRWLNLPERGGSQAFPNNAGIEMSRGRYIAYLGHDDIWAPDHLQALADLFGHTQQPDFAVSGAIFHGPRASNFRWVTGIFDESDTALKHFFPPSSFGHRRDVADRIGKWRHPKEITAPVDADFLLRAARFGMNFVSTQRITVQKFAAGHRYLSYTGHTSDEQERMVRRMARPGYDGYLASELAKAKAAGGYMVVVHPDYERYENGQVSTQNAMAKGVVRPDLRNLRQREVIKQDNSPKALDWVPHQSGGDWVLWAGRNPRPKLLVPFKYAGKARIRLDIRHPLREALTKLKLSVNGQPAVASLGKVRQEGNLWNAQATFETALRRDDHTILELHLTRLQRPAARNGIGVGDMEVTPLGWRSIVAKGTRLLAKFRPAC”, for which the protein production result was “failed”.

Regarding “MTTIDPRSELVDGRRRAGARVDAVGAAALLSAAARVGVVCHVHPDADTIGAGLALALVLDGCGKRVEVSFAAPATLPESLRSLPGCHLLVRPEVMRRDVDLVVTVDIPSVDRLGALGDLTDSGRELLVIDHHASNDLFGTANFIDPSADSTTTMVAEILDAWGKPIDPRVAHCIYAGLATDTGSFRWASVRGYRLAARLVEIGVDNATVSRTLMDSHPFTWLPLLSRVLGSAQLVSEAVGGRGLVYVVVDNREWVAARSEEVESIVDIVRTTQQAEVAAVFKEVEPHRWSVSMRAKTVNLAAVASGFGGGGHRLAAGYTTTGSIDDAVASLRAALGLEHHHHHH”, the protein production result is “not failed”.

On to “MTTIFIEKATILDAEKLTEIMTRTFDEEEKRWLCGQGDVIDYNIQPPGYSSVEMMRYSIEELDCYKVIMDGKIIGGIIVTISGKSYGRIDRIFVEPVYQGKGIGSYVIKLIEEEYPSIRIWDLETSSRQLNNHHFYKKMGYETIFKSEDEYCYVKRIT”, for which the protein production entry is listed as “failed”.

For “MTTILTVFTHAGGAGKTSIAGNIAHEFAQRGQHVLLIDGDPQSNLTTNMGVQDAELHETLFDVLSGDAPLPAPRHVHGFDLIPAVIDLAEVEPSIPGRVGGILALRDALQKESGRWDTVIIDSPPSLGQLAAACALAADALVVPIMTRSKGLNALRGLNRVMPQYHRLRPDLHVAAYVPTMCKSNRKEDSELLGIVREDLPHVTSPIVERGAVWNGAAEKGLPVTVFAPRSKEAEEIRKITSDLVEFLQRNAPERGER”, the protein production result is on record as “failed”. In the case of “MTTPIALRDWRLLAAGCGGLLLLAAAITLHSHWGDFLQWCLATQITLHRYLVMYLLLLNNHQYSGGIWLLVGAFLYGVLHAVGPGHGKFIVTTYLSTNQESLTAARVVPFLGSLLQGVTAILFVFILAVGLNLAAGDLSASRWYVEKISALTIGVFGAYVIFRALQSLWPTKQVIRRLTPAHQHDASCGCGHHGVGQDMQGADWKTRLGVVLAIGVRPCSGAIMILLFANALGIVSWGIAAVMSMALGTALSILGLSLLVHYARHRTVKRLVTNHRPRPWLVPLVKILGGLALILFAVGLFFSVVPISANGDFIAAGC”, the protein production entry is “failed”.

With “MTTPNRFVAGAIDLGEVKARAEARSQAQRAGQSSVTEVEPTVTITMDNVEEQLIKRSMQVPVVVLIGTPRSPDSEQLRAD”, the protein production entry is “failed”.

Turning to “MTTPSRRILILVGHPDPAPERFCRALAEAYAQGAMEGGHEVRRADIGSMDIALLESQAAFQVDDAPQSIRDLRADIVWAEHLVLVFPLWLGGAPAKLKAALEQVCRGGFGFEVGPRGWSSKLAGRSARMVLTMGMPSAIFRLVFGSHGLKAVTQGIFMLAGVKPRRASIIGGVEAIGAGGRSRWLKRMGHLGEAAR”, the protein production result is given as “failed”. Next, “MTTPTPTPTPTSQSLAAPFAQGVEGVYFDGRSSRDRAATLRVLGSGDLSSGAPLAVLRVAPTDGEPGSEQQWPLRQVQFDPPLAGVRRVVKLPDGGRFETNDDRAITALEAAVGRNRGLRGVRRLESDWGLTLGAVVTLGLFVWGFLTYGLPAMARSAAAATPRSVLTSFDTSAIEVLDNGTFMGPTHLSAARQAQLQREFKDVAQWAGGGYPYRLLLRDGTPQANGDKDSPAPSGSIGTNAFALPGGTVVMTEQLVKLAHSDRELMGVLAHETGHVTHRHSLSSIYQGLGLTLLTTAVTGDLIGASTFAAAVPTWLLKNGYSRQSETQSDEVAGRFLMERYGTTKPLRDVLARLETEDENADENSVKRDDPGAFLQTHPGTAERIRHLREIEQNWPQRRGK”: “failed”. In the case of “MTTRLLQLTRPHYRLLSLPLQKPFNIKRQMSAANPSPFGNYLNTITKSLQQNLQTCFHFQAKEIDIIESPSQFYDLLKTKILNSQNRIFIASLYLGKSETELVDCISQALTKNPKLKVSFLLDGLRGTRELPSACSATLLSSLVAKYGSERVDCRLYKTPAYHGWKKVLVPKRFNEGLGLQHMKIYGFDNEVILSGANLSNDYFTNRQDRYYLFKSRNFSNYYFKLHQLISSFSYQIIKPMVDGSINIIWPDSNPTVEPTKNKRLFLREASQLLDGFLKSSKQSLPITAVGQFSTLVYPISQFTPLFPKYNDKSTEKRTILSLLSTITSNAISWTFTAGYFNILPDIKAKLLATPVAEANVITASPFANGFYQSKGVSSNLPGAYLYLSKKFLQDVCRYRQDHAITLREWQRGVVNKPNGWSYHAKGIWLSARDKNDANNWKPFITVIGSSNYTRRAYSLDLESNALIITRDEELRKKMKAELDNLLQYTKPVTLEDFQSDPERHVGTGVKIATSILGKKL”, the protein production result is reported as “failed”. In the case of “MTTRRLALFDLDHTLLPLDSDYQWADFLARTGRAGDPAEARRRNDDLMERYNRGELTAEQAAEFMLGLLAAHSPVELAAWHEEFMRDVIRPSLTAQAVDVVRGHLAAGDLCALVTATNSFVTAPIARAFGVQHLIATDPEYRDGRYTGRIEGTPSFREGKVVRVNQWLAGMGLALGDFAESYFYSDSVNDVPLLEAVTRPIAANPSPGLREIAQARGWQVIDLFDHLEDAKS”, the protein production result is “not failed”.

Regarding “MTTSKVTYQGDLRTSAIHLQSNNEIITDAPVDNQGKGEAFSPTDLLATSLASCMLTIIGIKARDMEIDIAGTTAEVTKVMAADPRRVSEVHIAITFNQELDDKTQKIFYNTALTCPVAKSIHPDIFQKVIIHSKSY”, the protein production result is given as “not failed”.

As for “MTTWKELTDNNPAHSENYAQRWRNLAAAGNDIYGEARLIDAMAPRGAKILDAGCGQGRIGGYLSKQGHDVLGTDLDPILIDYAKQDFPEARWVVGDLSVDQISETDFDLIVSAGNVMGFLAEDGREPALANIHRALGADGRAVIGFGAGRGWVFGDFLEVAERVGLELENAFESWDLKPFVQGSEFLVAVFTKK”, the protein production result was “not failed”. Take “MTVAPTTHVPPARPAAYRELVRQRNSFTVAMTLTFLVLYFLLPLLAGYNKPLMATKVFGNVTFGYVLAFLEFLMGWVMAAIYVRKARTFDRLALEAQVPGGGA”: the protein production result was “failed”. Turning to “MTVDEWRLLDVSTAFGSGENSVPDFGESADDDAVVVWLVKGEEAVEKLSEIVFGVNLVLENHLKHGLSEI”, the protein production entry is given as “failed”. As for “MTVELLNEPLSRYPAFDTADPEELRQALSSVYGAKLVEGPIAADFHARSNFVQLDDIALAFGVGTGSIAVEFPEGECARLQIALSGQFTTRSGGTSTAINARQAGIISPGRNARTEYGQNYSFTLLRVSTSALERKLTTLLGCKPKASLEFEPAANNEAPQVVNLRRMLCFLANQLNCSPLPPVVLAELQEAITLLFLSAFRHNYSRQLERESHGIAPKHVRQVEEYIEANWMRPITIEKLTALTGISSRGIFKAFQRSRGYSPMAFAKRVRLQHAHNLLSDGATPTTVTAAALSCGFSNLGHFARDYRDMFGEKPSETLQRARP”, the protein production entry is reported as “failed”. Regarding “MTVGIIGAGNIGGAFATALGKAGIEAVIANSRGPESLTALVSKLGSTIRAGSVPEAAAQAIVLVAVPWSKIPGALAGLNFGDRIVIDANNSIEAPLYRPADLGGRTSTDIFTALVPGARVVKAFNHLTPKQLSGDPHSEGGRRVLFYSGDDMRAKAEVGAIIDRIGFFGIDLGGLPVGSQLLQFPGGPLPALNLVKFD”, the protein production result is listed as “failed”. Then “MTVKHLAIAPEGKKSLRLSWTNVAFFTTIHALALLAPWFFSWSALGLLLFLHWLFGSIGICLGYHRLLSHKSFQVPKWLEYAIATIGALAMQGGPIFWIGGHRQHHAHTEDVYLDPYSSQRGFWWSHMLWILYPRSEFFDYEIYQKYAPDLARQPFYRWLDRYFLLLQIPFGLMLYAIGGWSFVIYGVVLRAVLLWHSTWFVNSATHMWGYRTFNADDNARNLWWVSIVTYGEGWHNNHHTYPNVAKAGFQWWEVDVTWWSIKLLQTLGLAKKVVLPPSQRMNQG”, with “failed”; and “MTVLDKVNDPTDIKALTPLELEELATNVRDAILNRVSQYPGGHLGPNLGVVEMTIALHKVFNSPVDKLIWDVSHQSYPHKVLTGRKEFFTDKDKFSGTTGYTDPEENEHDFIRVGHTSTSIATAMGYALARDVQGKKENIVAIIGDGALSGGLAFEGLDGAGTLNGNLIIIVNDNEMAITENHGGIYQHLADLRASKGTSANNLFKSFGLDYRYLEEGNDIQSLIVLFESVKDINRPIVLHIHIEKGHGYKPAVENKEGMHQVFAPFDIATGQPVNSSTNIVRSYNNVFLDFMEEKLAKGDNLIAINAAIPMFFGLSQFAKNHPKNYVDGGIAEQYTVTLGGAIAAAGTRAIIFQNATFLQRAYDQLNHDLALNKEPAIVIISNSQIGGTNDTHQGSFVYSQTSNIPNVIDLAATSEEDLFAMLNWAYNQHEHPVFIHLPEHTLENRPTKITDFSKPQYEVVKSGEKVAILGLGAMLEKAENVAEELEKSGFNPTVVNPFFANLLDVAALDKLSETHGLFVTIEDGTKDGGFGQKVATYLASKGIKTLVYGADTEFIDAVPKEELYNRYHIRPELMATDIIEATKESKGPNFFKKIFSKLEHHHHHH”, with “not failed”; and “MTVLIIGMGNIGKKLVELGNFEKIYAYDRISKDIPGVVRLDEFQVPSDVSTVVECASPEAVKEYSLQILKNPVNYIIISTSAFADEVFRERFFSELKNSPARVFFPSGAIGGLDVLSSIKDFVKNVRIETIKPPKSLGLDLKGKTVVFEGSVEEASKLFPRNINVASTIGLIVGFEKVKVTIVADPAMDHNIHIVRISSAIGNYEFKIENIPSPENPKTSMLTVYSILRTLRNLESKIIFG”, with “not failed”.
